Measured values: patent US20210032299A1 (Eli Lilly, published 2021)
Starred links: 1 amine or outer side, 2 acyl side, 3 side chain; linkers in the order of their positions; H or OH if unused. Non-standard residues stand in square brackets, D forms with d. Groups on a side chain read outwards from the residue. No end group written: not given here. *: point of attachment. C20 diacid = O=C(O)CCCCCCCCCCCCCCCCCCC(=O)*; γGlu = O=C(O)[C@H](CCC(=O)[*:2])N[*:1]; 4Pal = N[C@@H](Cc1ccncc1)C(=O)O; αMeL = CC(C)C[C@](C)(N)C(=O)O; Orn = NCCC[C@H](N)C(=O)O; AEEA = NCCOCCOCC(=O)O; Aib = CC(C)(N)C(=O)O

T1: human glucose-dependent insulinotropic peptide receptor (human, UniProt P48546 22-466)
T1 sequence (looked up): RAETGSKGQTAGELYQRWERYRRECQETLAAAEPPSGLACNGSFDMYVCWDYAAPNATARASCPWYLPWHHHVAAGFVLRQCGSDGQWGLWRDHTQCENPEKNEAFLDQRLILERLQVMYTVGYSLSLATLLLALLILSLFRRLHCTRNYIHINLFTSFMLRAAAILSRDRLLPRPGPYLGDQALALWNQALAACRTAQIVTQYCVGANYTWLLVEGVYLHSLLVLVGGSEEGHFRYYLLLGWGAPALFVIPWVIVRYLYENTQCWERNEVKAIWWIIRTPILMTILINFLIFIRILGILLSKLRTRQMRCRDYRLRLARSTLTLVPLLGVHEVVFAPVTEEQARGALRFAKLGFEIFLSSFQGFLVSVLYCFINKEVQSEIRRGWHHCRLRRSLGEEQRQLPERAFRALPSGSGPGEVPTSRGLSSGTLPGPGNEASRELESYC

B1: Example 84 (peptide)
peptide: Y[Aib]EGTFISDYSI[αMeL]LDEK([AEEA-AEEA-γGlu-C20 diacid])HQ[Aib]DFVE[4Pal]LLAQGPSSGAPPPS-NH2
modifications: N-terminus assumed
SMILES: CC[C@H](C)[C@H](NC(=O)[C@H](Cc1ccccc1)NC(=O)[C@@H](NC(=O)CNC(=O)[C@H](CCC(=O)O)NC(=O)C(C)(C)NC(=O)[C@@H](N)Cc1ccc(O)cc1)[C@@H](C)O)C(=O)N[C@@H](CO)C(=O)N[C@@H](CC(=O)O)C(=O)N[C@@H](Cc1ccc(O)cc1)C(=O)N[C@@H](CO)C(=O)N[C@H](C(=O)N[C@@](C)(CC(C)C)C(=O)N[C@@H](CC(C)C)C(=O)N[C@@H](CC(=O)O)C(=O)N[C@@H](CCC(=O)O)C(=O)N[C@@H](CCCCNC(=O)COCCOCCNC(=O)COCCOCCNC(=O)CC[C@H](NC(=O)CCCCCCCCCCCCCCCCCCC(=O)O)C(=O)O)C(=O)N[C@@H](Cc1c[nH]cn1)C(=O)N[C@@H](CCC(N)=O)C(=O)NC(C)(C)C(=O)N[C@@H](CC(=O)O)C(=O)N[C@@H](Cc1ccccc1)C(=O)N[C@H](C(=O)N[C@@H](CCC(=O)O)C(=O)N[C@@H](Cc1ccncc1)C(=O)N[C@@H](CC(C)C)C(=O)N[C@@H](CC(C)C)C(=O)N[C@@H](C)C(=O)N[C@@H](CCC(N)=O)C(=O)NCC(=O)N1CCC[C@H]1C(=O)N[C@@H](CO)C(=O)N[C@@H](CO)C(=O)NCC(=O)N[C@@H](C)C(=O)N1CCC[C@H]1C(=O)N1CCC[C@H]1C(=O)N1CCC[C@H]1C(=O)N[C@@H](CO)C(N)=O)C(C)C)[C@@H](C)CC
B2: Example 83 (peptide)
peptide: Y[Aib]EGTFISDYSI[αMeL]LDEK([AEEA-AEEA-γGlu-C20 diacid])HQ[Aib]DFVE[4Pal]LLATGPSSGAPPPS-NH2
modifications: N-terminus assumed
SMILES: CC[C@H](C)[C@H](NC(=O)[C@H](Cc1ccccc1)NC(=O)[C@@H](NC(=O)CNC(=O)[C@H](CCC(=O)O)NC(=O)C(C)(C)NC(=O)[C@@H](N)Cc1ccc(O)cc1)[C@@H](C)O)C(=O)N[C@@H](CO)C(=O)N[C@@H](CC(=O)O)C(=O)N[C@@H](Cc1ccc(O)cc1)C(=O)N[C@@H](CO)C(=O)N[C@H](C(=O)N[C@@](C)(CC(C)C)C(=O)N[C@@H](CC(C)C)C(=O)N[C@@H](CC(=O)O)C(=O)N[C@@H](CCC(=O)O)C(=O)N[C@@H](CCCCNC(=O)COCCOCCNC(=O)COCCOCCNC(=O)CC[C@H](NC(=O)CCCCCCCCCCCCCCCCCCC(=O)O)C(=O)O)C(=O)N[C@@H](Cc1c[nH]cn1)C(=O)N[C@@H](CCC(N)=O)C(=O)NC(C)(C)C(=O)N[C@@H](CC(=O)O)C(=O)N[C@@H](Cc1ccccc1)C(=O)N[C@H](C(=O)N[C@@H](CCC(=O)O)C(=O)N[C@@H](Cc1ccncc1)C(=O)N[C@@H](CC(C)C)C(=O)N[C@@H](CC(C)C)C(=O)N[C@@H](C)C(=O)N[C@H](C(=O)NCC(=O)N1CCC[C@H]1C(=O)N[C@@H](CO)C(=O)N[C@@H](CO)C(=O)NCC(=O)N[C@@H](C)C(=O)N1CCC[C@H]1C(=O)N1CCC[C@H]1C(=O)N1CCC[C@H]1C(=O)N[C@@H](CO)C(N)=O)[C@@H](C)O)C(C)C)[C@@H](C)CC
B3: Example 82 (peptide)
peptide: Y[Aib]EGTFISDYSI[αMeL]LD[Orn]K([AEEA-AEEA-γGlu-C20 diacid])HQ[Aib]DFVE[4Pal]LLEGGPSSGAPPPS-NH2
modifications: N-terminus assumed
SMILES: CC[C@H](C)[C@H](NC(=O)[C@H](Cc1ccccc1)NC(=O)[C@@H](NC(=O)CNC(=O)[C@H](CCC(=O)O)NC(=O)C(C)(C)NC(=O)[C@@H](N)Cc1ccc(O)cc1)[C@@H](C)O)C(=O)N[C@@H](CO)C(=O)N[C@@H](CC(=O)O)C(=O)N[C@@H](Cc1ccc(O)cc1)C(=O)N[C@@H](CO)C(=O)N[C@H](C(=O)N[C@@](C)(CC(C)C)C(=O)N[C@@H](CC(C)C)C(=O)N[C@@H](CC(=O)O)C(=O)N[C@@H](CCCN)C(=O)N[C@@H](CCCCNC(=O)COCCOCCNC(=O)COCCOCCNC(=O)CC[C@H](NC(=O)CCCCCCCCCCCCCCCCCCC(=O)O)C(=O)O)C(=O)N[C@@H](Cc1c[nH]cn1)C(=O)N[C@@H](CCC(N)=O)C(=O)NC(C)(C)C(=O)N[C@@H](CC(=O)O)C(=O)N[C@@H](Cc1ccccc1)C(=O)N[C@H](C(=O)N[C@@H](CCC(=O)O)C(=O)N[C@@H](Cc1ccncc1)C(=O)N[C@@H](CC(C)C)C(=O)N[C@@H](CC(C)C)C(=O)N[C@@H](CCC(=O)O)C(=O)NCC(=O)NCC(=O)N1CCC[C@H]1C(=O)N[C@@H](CO)C(=O)N[C@@H](CO)C(=O)NCC(=O)N[C@@H](C)C(=O)N1CCC[C@H]1C(=O)N1CCC[C@H]1C(=O)N1CCC[C@H]1C(=O)N[C@@H](CO)C(N)=O)C(C)C)[C@@H](C)CC
B4: Example 81 (peptide)
peptide: Y[Aib]EGTFISDYSI[αMeL]LD[Orn]K([AEEA-AEEA-γGlu-C20 diacid])HQ[Aib]DFVE[4Pal]LLEQGPSSGAPPPS-NH2
modifications: N-terminus assumed
SMILES: CC[C@H](C)[C@H](NC(=O)[C@H](Cc1ccccc1)NC(=O)[C@@H](NC(=O)CNC(=O)[C@H](CCC(=O)O)NC(=O)C(C)(C)NC(=O)[C@@H](N)Cc1ccc(O)cc1)[C@@H](C)O)C(=O)N[C@@H](CO)C(=O)N[C@@H](CC(=O)O)C(=O)N[C@@H](Cc1ccc(O)cc1)C(=O)N[C@@H](CO)C(=O)N[C@H](C(=O)N[C@@](C)(CC(C)C)C(=O)N[C@@H](CC(C)C)C(=O)N[C@@H](CC(=O)O)C(=O)N[C@@H](CCCN)C(=O)N[C@@H](CCCCNC(=O)COCCOCCNC(=O)COCCOCCNC(=O)CC[C@H](NC(=O)CCCCCCCCCCCCCCCCCCC(=O)O)C(=O)O)C(=O)N[C@@H](Cc1c[nH]cn1)C(=O)N[C@@H](CCC(N)=O)C(=O)NC(C)(C)C(=O)N[C@@H](CC(=O)O)C(=O)N[C@@H](Cc1ccccc1)C(=O)N[C@H](C(=O)N[C@@H](CCC(=O)O)C(=O)N[C@@H](Cc1ccncc1)C(=O)N[C@@H](CC(C)C)C(=O)N[C@@H](CC(C)C)C(=O)N[C@@H](CCC(=O)O)C(=O)N[C@@H](CCC(N)=O)C(=O)NCC(=O)N1CCC[C@H]1C(=O)N[C@@H](CO)C(=O)N[C@@H](CO)C(=O)NCC(=O)N[C@@H](C)C(=O)N1CCC[C@H]1C(=O)N1CCC[C@H]1C(=O)N1CCC[C@H]1C(=O)N[C@@H](CO)C(N)=O)C(C)C)[C@@H](C)CC
B5: Example 85 (peptide)
peptide: Y[Aib]EGTFISDYSI[αMeL]LDEK([AEEA-AEEA-γGlu-C20 diacid])HQ[Aib]DFVE[4Pal]LLAAGPSSGAPPPS-NH2
modifications: N-terminus assumed
SMILES: CC[C@H](C)[C@H](NC(=O)[C@H](Cc1ccccc1)NC(=O)[C@@H](NC(=O)CNC(=O)[C@H](CCC(=O)O)NC(=O)C(C)(C)NC(=O)[C@@H](N)Cc1ccc(O)cc1)[C@@H](C)O)C(=O)N[C@@H](CO)C(=O)N[C@@H](CC(=O)O)C(=O)N[C@@H](Cc1ccc(O)cc1)C(=O)N[C@@H](CO)C(=O)N[C@H](C(=O)N[C@@](C)(CC(C)C)C(=O)N[C@@H](CC(C)C)C(=O)N[C@@H](CC(=O)O)C(=O)N[C@@H](CCC(=O)O)C(=O)N[C@@H](CCCCNC(=O)COCCOCCNC(=O)COCCOCCNC(=O)CC[C@H](NC(=O)CCCCCCCCCCCCCCCCCCC(=O)O)C(=O)O)C(=O)N[C@@H](Cc1c[nH]cn1)C(=O)N[C@@H](CCC(N)=O)C(=O)NC(C)(C)C(=O)N[C@@H](CC(=O)O)C(=O)N[C@@H](Cc1ccccc1)C(=O)N[C@H](C(=O)N[C@@H](CCC(=O)O)C(=O)N[C@@H](Cc1ccncc1)C(=O)N[C@@H](CC(C)C)C(=O)N[C@@H](CC(C)C)C(=O)N[C@@H](C)C(=O)N[C@@H](C)C(=O)NCC(=O)N1CCC[C@H]1C(=O)N[C@@H](CO)C(=O)N[C@@H](CO)C(=O)NCC(=O)N[C@@H](C)C(=O)N1CCC[C@H]1C(=O)N1CCC[C@H]1C(=O)N1CCC[C@H]1C(=O)N[C@@H](CO)C(N)=O)C(C)C)[C@@H](C)CC
B6: Example 86 (peptide)
peptide: Y[Aib]EGTFISDYSI[αMeL]LDEK([AEEA-AEEA-γGlu-C20 diacid])HQ[Aib]DFVE[4Pal]LLAGGPSSGAPPPS-NH2
modifications: N-terminus assumed
SMILES: CC[C@H](C)[C@H](NC(=O)[C@H](Cc1ccccc1)NC(=O)[C@@H](NC(=O)CNC(=O)[C@H](CCC(=O)O)NC(=O)C(C)(C)NC(=O)[C@@H](N)Cc1ccc(O)cc1)[C@@H](C)O)C(=O)N[C@@H](CO)C(=O)N[C@@H](CC(=O)O)C(=O)N[C@@H](Cc1ccc(O)cc1)C(=O)N[C@@H](CO)C(=O)N[C@H](C(=O)N[C@@](C)(CC(C)C)C(=O)N[C@@H](CC(C)C)C(=O)N[C@@H](CC(=O)O)C(=O)N[C@@H](CCC(=O)O)C(=O)N[C@@H](CCCCNC(=O)COCCOCCNC(=O)COCCOCCNC(=O)CC[C@H](NC(=O)CCCCCCCCCCCCCCCCCCC(=O)O)C(=O)O)C(=O)N[C@@H](Cc1c[nH]cn1)C(=O)N[C@@H](CCC(N)=O)C(=O)NC(C)(C)C(=O)N[C@@H](CC(=O)O)C(=O)N[C@@H](Cc1ccccc1)C(=O)N[C@H](C(=O)N[C@@H](CCC(=O)O)C(=O)N[C@@H](Cc1ccncc1)C(=O)N[C@@H](CC(C)C)C(=O)N[C@@H](CC(C)C)C(=O)N[C@@H](C)C(=O)NCC(=O)NCC(=O)N1CCC[C@H]1C(=O)N[C@@H](CO)C(=O)N[C@@H](CO)C(=O)NCC(=O)N[C@@H](C)C(=O)N1CCC[C@H]1C(=O)N1CCC[C@H]1C(=O)N1CCC[C@H]1C(=O)N[C@@H](CO)C(N)=O)C(C)C)[C@@H](C)CC

Experiments:
Assay in all cases: cell-based or functional assay
[1] = molecular target: T1, human glucose-dependent insulinotropic …
human glucagon receptor = human glucagon receptor (human, UniProt P47871 26-477)
Sequence of human glucagon receptor (P47871 26-477): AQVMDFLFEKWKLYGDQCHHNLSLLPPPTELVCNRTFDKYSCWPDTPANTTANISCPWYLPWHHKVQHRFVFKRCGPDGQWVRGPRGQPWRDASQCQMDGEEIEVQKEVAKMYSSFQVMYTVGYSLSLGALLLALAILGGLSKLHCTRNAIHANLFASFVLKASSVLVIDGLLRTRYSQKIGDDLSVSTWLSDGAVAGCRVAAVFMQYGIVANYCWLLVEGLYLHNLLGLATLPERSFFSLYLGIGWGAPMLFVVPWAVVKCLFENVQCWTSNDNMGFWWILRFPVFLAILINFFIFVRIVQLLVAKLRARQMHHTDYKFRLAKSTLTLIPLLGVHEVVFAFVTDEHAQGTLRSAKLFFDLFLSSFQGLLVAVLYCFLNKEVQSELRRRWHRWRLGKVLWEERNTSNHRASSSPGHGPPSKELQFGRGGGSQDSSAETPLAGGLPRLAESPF

human GLP-1 receptor = human GLP-1 receptor (human, UniProt P43220 24-463)

Binder	hGIPR cAMP Rel EC50 [1]	hGcgR cAMP Rel EC50 (human glucagon receptor)	hGLP1R cAMP Rel EC50 (human GLP-1 receptor)
B1	34 pM	> 5 µM	> 5 µM
B2	43.2 pM	> 5 µM	> 5 µM
B3	39.1 pM	3.79 µM	> 5 µM
B4	28.2 pM	> 5 µM	> 5 µM
B5	35.9 pM	> 5 µM	> 5 µM
B6	30 pM	> 5 µM	> 5 µM
